Assay results reported in the DeepSol protein solubility set.

Experiment: soluble on expression in E. coli; label from the status in PepcDB or PDB records

Soluble on expression in E. coli, not soluble:
MGSDKIHHHHHHMSESWVAVTGATGFIGNALLQSLIKEGWKVRALTRRARVDDESTQWIEGDLHDRDALRKLVTGVSAVVHCAGQVRGSSLESFVRTNVEGTANLMQASLEQNPPPRFLLVSSLAARQPELSWYATSKHMAERLIDERSAGMACAIFRPTAVYGPGDKEMSPLFRITRRGILPMVGQPEMRFGLLHVADLVAAITCWLSTAVPVQGTYELDDGMPGGYDSQAVATIAQEVWKRPVRCVFFPAPLVSLIANINLWSARMLSYSPMLTPGKVRELRHPDWVCDIDPLTRALPGWRPCIHLRDALPQAV
GPGSMRRFPPPPPTRTCAHERVKHAVPIPFRVTCFWPAMSAAPSEAFAEAETMEQLRLKGNACFADDPAEAAKYYTQAVQLYEERHGEDAACSLDEFTKSAGNALTCLFKMGETEQCAALAVRVLASNPILAKANAFYGRCALVDPSLDSVSTGFGTASAAALVHLCRAIYELPALEPNTRENIDEALTRLIGERVSVTETFARSPEAGVKLVRGQCGVGVEAIRTLPPLVEVVSLLTPFSVGAFEDFAGKGCCVECSKPIGLDVADAAAEEPNEDDGDEENDKDEGNVKATKEKPSTCTACNMVVYCSPACADAHREQHERFECARMTRLSDMMQGIEARKLDVPEQFFELAYHCITTLAGIKAKRAGHERVLTLTAHVDEVIQSLHPIGPLMCDLFKGEERPATLYTIIGVLCCNALELADPSGLGVAQALHAGNSIASFFNHSCTPNCAIDTVRHAIVTTRTIHVGEELSIAYIPQLYWPTRLRRERLSESYYFVCRCQRCESSNKDPFERALSMELPTARREATKHFHPIVQTTCATVRSRMVGDVSQKDADELSKLLRELSTHLFPFHYLCHEVRNCLSFVYAVLGQTRECLCSCLDELLMWECILPGALPVKRMKIENALQCVQGFGANVSDCSAALLPHLSRLALVYDAEGPI
MSLRWEGTEEEAYKAEGTHFSGARRQTLVGRPAGQEAPAFETRYFEVEPGGYTTLERHEHTHVVMVVRGHAEVVLDDRVEPLTPLDCVYIAPHAWHQIHATGANEPLGFLCIVDSDRDREGHHHHHH
MSSCSSLQSSSSRGASTDSLNTTSNGFSDGGSNLLPPKPNRIGCAATGAQSETDLRFVTSRDTHSSIPLNEPFGFGEKSPRAFMSENDLSAGAAGASTDFPEVTRTPSYLRISCALNGYTKSPNKSDLTPIAPHPPVSTMGESFVERRSRMFSQPQQRNPAPGFSSPLPPTTVSSQSASSEIEWSVEKF
SALIAALSVSGLPSNRFTFEGFLPAKPTARRDRLTHLAHEPRTLIFYEASHRIAECLTDLATIFGSMRIAVVARELTKIFETVLDGTLATLQTQVANDENQRKGEFVIIVQGAADQ
MGSDKIHHHHHHMRNASIEQYDATPRAVVAMGTDYPDGYLLPRHRHRRAQLLYGASGVMQVRTGDAGWVVPPQRAVWIPPGVEHEVRMLGVSTRSLYIEPGSAMAMPAHCQVLAVSPLLRQLLLAAVDMPLEYDTEGRDGALATLLLHELAAAETLPLHVPLPPEPRWLALCEAFLVEPDIRASAERWAGLLHTSLRSFNRTFRRYTGLSFGAWKQRACVVQALARLAGGETVTAIALDCGYQSPAAFSTMFRRVLGQPPSAFQAGALRSPGGP
MGSDKIHHHHHHMDISRKIERLELFLEQDKDNLNLMLDLIYLSLDAGSIDIAENYLYRAQQQHPESSQLIYLSGLISCQRKNFEQGLITFNSLLSAGVRSASILYQAAYCNIQLGNPETALERLIHASELSPETEILYLLARTQYQLKNFELAVSTLTALADSDAKYAPAHSLLSQIYMDIEQWADAQASAAKALALDPNNVTANITIGFITLNSNQYDQAARHFSQALNVNDESCRTHLGLAIIDVFQQRYVEAEQHLLKALSLQNDLLPGINLLGWLYLLTDRFALARDVFDRGVEVDRSYAEMYGGIAIVDILEKDETAARKNVAIALRLDKMSYAGNFAKILLLQNAQRLSQAEKVWKNLISSPIDDTGKTLEQAVIEQIRAYLKVTLH
MGSDKIHHHHHHMVDFNNTLESAVKSVLKWEEKQIITETTIIRDVQGKVSLFLKSEQKATESDISNLEEILQNDLNGFFTGKIFWEKCDKKDKLRIEIIKSIIEESREEWKTEDGVDFYICERPIAKKAWVNATQDVEPVWQYQEAECSNKAKVVTFYSFKGGMGRTTALAGIALNLIEQNKNVMMIDMDIEAPGLSTLFFDDIVVEKGLLDYLIERPLNEQCDIHDYVLEVTDPALLKENDGNLYLMPAGKVDETYLQKLARIDYQDNRENNLKSSIKNLLEKLDNTYHPDYILIDARAGFHDMGGIAVAQIPHGAVLIGNGSKQSWDGMTQVIRTIAKGNTEEFSIMIVDSMCERATAERAIEQRKKFLNMAYTVCMENYYNEDQVMPGIDAEGVEHQPEYIPYDSELMQGFELFSDGYNDSEIRVQAYRDLLTGSAYKDITKRIQSWFGE
MITIKFDLNRYSCSWGAGGAFGGNRGLRPIPPEKGIFPLDHLHECDAVFFNKRFFL
MDIKAQLKQIQDKGLYRELQPIQSVEKQYIYINDQSYINFTSNDYLGIGQLEYQPQNFLDFIKTYSIHLSSSRLVSGNSVVYQQLEQAISEHFNFEDALIFNSGYDANLAVFNIFKNNNVVIFSDQQNHASIIDGIKLSGLSKVIYQHLNYDDLESHLAQDTHLDVQKVIVSDSVFSTNGTKADINRLVHLKQRYNAILIIDASHSLGLNLFEYHADIDIVTSSLSKAWGAHGGIIFSSKDIKDLIINKGRSLIYSSSLPSYHLYFIQVSLQHVIEDTYRREKLNALSEYFNHQFMELFPNQPLSNTPIKNIVCDSLASAQAQYDMLFEHGIFVSYLRYPTVSQPTLRISLSYFHDTDDIDRLFNVMKQYDEGDSYV
MMEPITKETRFNELPQQIKQKLINIYRSSHQQYLSMEMLKPTKFNLLYSQTQDLQTRNLQKNFKLLVESAEKLKRMWNLNKDEVDFRYLHENLKKSLEEFKEEVMLYKKNEGNTEFLDEIAMTYAMLRNKLESLTKERRA
MPAYPREGKIIQIHSYKHNGTIHRIWQETVVLKGTPSYVIGGNNKTLVMEADGRTWVTREPAICFFHAKHWFNIIAMIREDGVYYYCNLSSPFVWDEEALKYIDYDLDIKVFPDMTYMLLDEDEYERHRREMHYPDVIDRILKNNVQKLIGWIKERKGPFAPEFIDKWYGVFQAYQT
PKPLVILAHEIYGVNSHMKKMGRLIKMAGYDVLTPNLLGEDEVYTLKEEKTAYEQFTKHERLKTGETIIQPVIRQNAGRHIFVIGFSVGATIAWKCSSMPEVSGSVCYYGSRIRDSLHHMPACPVLLFFPNYEPSFDVALLIKKLREKQHTHLEIYQFDALHASP

Soluble on expression in E. coli, soluble:
MSIHVNEANLTFHLQTDHTSYIFQIMKNGEAGQIYYGPRIHVQPTYQNLMSQEWRDATPSLNEENPNFQPATIKAEYASLGKGDFRQPAFQVTQANGSRITELTYDHYQLLTGKQRLANLPSTFDDTDDDAQTLVVSFNDRITGLALDLNYSIFPHQDVIVKSAKFTNPSSEKLVLNRALSSQLDLPDANYDLIQFSGTWARERHLYRHPLRPGMQSISSLRMASSHQQNPFMMLARPQTTDEQGAVFGFNLVYSGNFLDAIEVDQYSTSRILTGINPDEFGWNLAPQATFQTPEAILSYTSAGMNQLSQQMASFYQQHLVNPRFAHEERPVLINNWEATYFDFNEAKLMTIVNQAKRLGIEMFVLDDGWFGHRDDDTTSLGDWFVDQRKFPDGIEHFSQAVHQQGMKFGLWFEPEMVSVDSDLYQQHPDWLIHAPKSTPTPGRHQFVLDMARPEVVDYLFKLMSQMIESANLDYIKWDMNRYATEMFSSRLTSDQQLELPHRYILGVYQLYARLTQAYPNVLFESCASGGGRFDLGMMYYAPQAWTSDDTDAAERLLIQFGTSYGYPQAMMGAHVSAVPNDQMGRITSLKTRGAVAFFGDLGYELDITKMAPTELDQVKKQVAFYKCYRQLFQFGKFYRIDSPFVEDGNVTSWQVVSDDQKQAIAARYQLLNHPNAPYTRFYFKGLRPNQRYQINDDPSTYYGDELMNAGYFVPTILADGQESKDFYTQLFVVTAILEHHHHHH
MNDVQQAINSDDIPLTDELVVSYLQDNPEFFNRNNSLMTGLRLNDEQRGTVSLVERQQQQLRQKVYGLEDEITQLMSVANHNEQLFVLYSDLYLRLLDCQSAEELLDCLHQATTELLSLSSFKLWLVSGNNTEVAHHSLSTNDCAGVMQNRLTNDEYYFGRLQESEQTLIFSKPCLGSVVLIKLTHDEQAVGFLAIGSEDAHHFDPRMDTLLLNQFKRLVAKLLHQQLSMLEHHHHHH
MIIKGRAHKFGDDVDTDAIIPGPYLRTTDPYELASHCMAGIDENFPKKVKEGDVIVAGENFGCGSSREQAVIAIKYCGIKAVIAKSFARIFYRNAINVGLIPIIANTDEIKDGDIVEIDLDKEEIVITNKNKTIKCETPKGLEREILAAGGLVNYLKKRKLIQSKKGVKT
AGHMQQEAVAPEDSAVVKLATDSFNEYIQSHDLVLAEFFAPWCGHCKNMAPEYVKAAETLVEKNITLAQIDCTENQDLCMEHNIPGFPSLKIFKNSDVNNSIDYEGPRTAEAIVQFMIKQSQPAVAVVADLPAYLANETFVTPVIVQSGKIDADFNATFYSMANKHFNDYDFVSAENADDDFKLSIYLPSAMDEPVVYNGKKADIADADVFEKWLQVEALPYFGEIDGSVFAQYVESGLPLGYLFYNDEEELEEYKPLFTELAKKNRGLMNFVSIDARKFGRHAGNLNMKEQFPLFAIHDMTEDLKYGLPQLSEEAFDELSDKIVLESKAIESLVKDFLKGDASPIVKSQEIFENQDSSVFQLVGKNHDEIVNDPKKDVLVLYYAPWCGHCKRLAPTYQELADTYANATSDVLIAKLDHTENDVRGVVIEGYPTIVLYPGGKKSESVVYQGSRSLDSLFDFIKENGHFDVDGKALYEEAQEKAAEEADADAELADEEDAIHDEL
MAHHHHHHMNDSISSPIKATCRDMALKSSLHSFTFSLKDFDIAGFLGDGAHGSVFLACERRTNFICVLKCISKSHLVKSTQEALLRKEIELQAHLKHPHIACMYTWFHTSSHVFFVMEYCSNGDLFTYLNENGPFCEKKVAEMLFEIIWAIRTCHDKRIAHLDLKPENVLVNHEEKCKLADFGLSAHIGSKHKKKGISHYRGTHDYWSPEQCARHQKKKQNFGEFDQKTDIWTLGILAFELKFGRPPFGSTNEERENVIMNRIQDYHWSQLFCEKVKQDLIDKLSPEFKDFLNLCLDKNPKKRPTAESLIQHPFIFIHNKNRSCIKSYATQPRGKQGPKLSHKGFNEQDGSFLTPIWFHNK
MNEYFFPKLTAVEALAPYRLRTTWSTGEVLEVDVGDILRKIPDLAPILDPEAFARVHIAEWEGSVEWFDTEFGRDNVYAWAKEQAGEVSHEMFGDWMHRNNLSLTTAAEALGISRRMVSYYRTAHKIIPRTIWLACLGWEATRPETKTLPRTLPAAYAKGVSASLS
GMSEPYGKAFSLMRAEAEPAWRAYTHHAFVEGLKAGTLPREAFLHYLQQDYVFLIHFSRAWALAVVKSETHSEMLAAVGTVNALVAEEMQLHIGICEASGISQEALFATRERAENLAYTRFVLEAGYSGDLLDLLAALAPCVMGYGEIGKRLTAEATSTLYGDWIDTYGGDDYQAACKAVGTLLDDALERRLGAEFTSSPRWSRLCQTFHTATELEVGFWQMGLTP
